Test results reported in article PMC9178793, “A Direct Assay for Measuring the Activity and Inhibition of Coactivator-Associated Arginine Methyltransferase 1” (Biochemistry, 2022).

Key:
[1] = substrate: CSCC[C@H](NC(=O)[C@@H](NC(=O)[C@H](CO)NC(=O)[C@H](Cc1ccccc1)NC(=O)[C@@H]1CCCN1C(=O)[C@@H]1CCCN1C(=O)[C@H](CCCNC(=N)N)NC(=O)[C@@H]1CCCN1C(=O)[C@H](C)NC(=O)[C@H](C)NC(=O)[C@@H]1CCCN1C(C)=O)[C@@H](C)O)C(N)=O; experiment: kinetic analysis of CARM1 substrates (KM determination, MRM LC-MS enzymatic activity assay); type: biochemical, Mus musculus; settings: other: fixed 100 μM AdoMet, PABP1 456–466 0.05–100 μM
Excerpt: (§1) The Mus musculus CARM1 (mmCARM1) gene sequence corresponding to the PRMT core (residues 130–497, mmCARM1_130–497) were amplified by PCR from the original GST-CARM1 construct.[19] The sequences were cloned in the pDONR207 (Invitrogen) vector using a BP reaction (Gateway Cloning, Life Technologies). The positive clones were confirmed by sequencing (GATC). The sequences were subcloned in a pDEST20 vector using an LR reaction. The resulting recombinant protein is harboring an amino-terminal glutathione S-transferase (GST) tag followed by a Tobacco etch virus (TEV) protease cleavage site. DH10Bac competent cells containing the baculovirus genome were transformed with the pDEST20-CARM1 plasmids and plated onto LB agar media containing 15 mg·mL^–1 tetracycline, 7 mg·mL^–1 gentamicin, 50 mg·mL^–1 kanamycin, 25 mg·mL^–1 X-Gal, and 40 mg·mL^–1 IPTG. Bacmid DNA purified from recombination-positive white colonies was transfected into Sf9 cells using the Lipofectin reagent (Invitrogen). Viruses were harvested 10 days after transfection. […]
(§2) Enzyme activity assays were performed with CARM1 (286 nM corresponding to 11.68 ng/μL) in 20 mM Tris buffer (pH 8) containing 50 mM Tris NaCl, 1 mM EDTA, 3 mM MgCl2, 0.1 mg/mL BSA, and 1 mM dithiothreitol (DTT). […] The supernatant (60 μL) was transferred to a new 96-well plate and analyzed. […]

[2] = substrate: C[S+](CC[C@H](N)C(=O)[O-])C[C@H]1O[C@@H](n2cnc3c(N)ncnc32)[C@H](O)[C@@H]1O; experiment: as above; type: biochemical, Mus musculus; settings: other: fixed 100 μM PABP1, AdoMet 0.05–100 μM
Excerpt: as §1, §2

B1: CARM1 (Mus musculus) (protein)
chain: GHTLERSVFSERTEESSAVQYFQFYGYLSQQQNMMQDYVRTGTYQRAILQNHTDFKDKIVLDVGCGSGILSFFAAQAGARKIYAVEASTMAQHAEVLVKSNNLTDRIVVIPGKVEEVSLPEQVDIIISEPMGYMLFNERMLESYLHAKKYLKPSGNMFPTIGDVHLAPFTDEQLYMEQFTKANFWYQPSFHGVDLSALRGAAVDEYFRQPVVDTFDIRILMAKSVKYTVNFLEAKEGDLHRIEIPFKFHMLHSGLVHGLAFWFDVAFIGSIMTVWLSTAPTEPLTHWYQVRCLFQSPLFAKAGDTLSGTCLLIANKRQSYDISIVAQVDQTGSKSSNLLDLKNPFFRYTGTTPSPPPGSHYTSPSENM
notes: corresponding to the PRMT core (residues 130–497, mmCARM1_130–497) were amplified by PCR; GST (followed by TEV protease cleavage site) (N, cleaved yes); made in house; host or cells: Sf9 insect cells (baculovirus)
[1]
  Km: 12.03 ± 2.28 µM
[2]
  Km: 5.46 ± 0.01 µM
